Test results reported in patent US20190010233A1 (JIANGSU HYAMAB PHARMACEUTICAL, published 2019).

Tests used:
[1] = target: T1, human PD-L1^ECD-hFc protein (human, UniProt Q9NZQ7 19-239, biotinylated in the PD-1 binding ELISA (Table 3) and in the Octet assay (Table 12)); experiment: ELISA, 0.01 nM mAb
T1 construct: The plain and the biotinylated protein are kept as one molecule; also called PD-L1-hFc; Immunogen A; not shown: human IgG Fc fragment (hFc)
Protocol: (§1) 100 μL of the diluted recombinant proteins were added to each well of 96-well plate. The plates were sealed with plastic film and incubated at 4° C. overnight. The plates were washed twice with wash buffer (PBS+0.01% (v/v) Tween20), and incubated with blocking buffer (PBS+0.01% (v/v) Tween20+1% (w/w) BSA) at room temperature for 2 hours. The blocking buffer was aspirated away, and 100 μL of purified anti-PD-L1 antibodies were added to each well and incubated for 2 hours at 37° C. The plates were washed three times with wash buffer (PBS+0.01% (v/v) Tween20). HRP-conjugated secondary antibody (Sigma) was added to each well and incubated for 2 hours at 37° C. After the plates were washed three times with wash buffer, 100 μL TMB substrate were added to each well, and the plates were incubated for 30 minutes at room temperature. 100 μL stop solution (0.1N HCl) was added to each well to stop the reaction.

[2] = target: T2, full length human PD-L1 on cells (human, UniProt Q9NZQ7 19-290); experiment: cell-based or functional assay
[3] = target: T2, full length human PD-L1 on cells; experiment: FACS CHO-K1-hPD-L1, 11.11 nM mAb
[4] = target: T3, cyno PD-L1^ECD-hFc protein (cyno, UniProt G7PSE7 19-239); experiment: ELISA, 0.041 nM mAb
T3 construct: also called Cyno Monkey PD-L1^ECD-hFc
Protocol: as §1

[5] = target: T1, human PD-L1^ECD-hFc protein; experiment: ELISA, 0.041 nM mAb
Protocol: as §1

[6] = target: T3, cyno PD-L1^ECD-hFc protein; experiment: ELISA, 0.370 nM mAb
Protocol: as §1

[7] = target: T1, human PD-L1^ECD-hFc protein; experiment: ELISA, 0.370 nM mAb
Protocol: as §1

[8] = target: T3, cyno PD-L1^ECD-hFc protein; experiment: ELISA, 30 nM mAb
Protocol: as §1

[9] = target: T1, human PD-L1^ECD-hFc protein; experiment: ELISA, 30 nM mAb
Protocol: as §1

[10] = target: T2, full length human PD-L1 on cells; experiment: FACS CHO-K1-hPD-L1, 3.70 nM mAb
Protocol: Other CHO-K1 were stably transfected with a pIRES plasmid containing the nucleic acid sequence encoding full length cyno PD-L1 to generate CHO-K1 cells stably expressing cyno PD-L1 (herein referred to as CHO-K1-cPD-L1 cells). […] The culture media was aspirated, and the cells were washed twice with HBSS (Hanks Balanced Salt Solution, Invitrogen). The cells were treated with enzyme-free cell dissociation solution (Versene solution, Invitrogen) and collected. The cells were then washed twice with HBSS, cell counts were determined, and cells were resuspended with HBSS at 2×10⁶ cells/mL. Goat serum was added to the cell suspension to a final concentration of 1%, and the cells were blocked for 30 minutes on ice and then washed twice with HBSS. The cells were collected after centrifugation and resuspended in FACS buffer (HBSS+1% BSA, v/v) at 2×10⁶ cells/mL. 100 μL of the cell suspension were then added to each well of 96-well plate. 100 μL of purified anti-PD-L1 antibodies from Example 2 were added to each well of the 96-well plate and incubated for 2 hours on ice. […] The samples were washed three times with FACS buffer, and 100 μL fixation buffer (4% paraformaldehyde v/v) were added to each well and incubated for 10 minutes. The cells were then washed twice with FACS buffer and resuspended in 100 μL FACS buffer. The mean fluorescence intensity (MFI) was determined using FACS Calibur (BD), and the results are shown in FIGS. 7-8 and in Tables 10-11.

[11] = target: T3, cyno PD-L1^ECD-hFc protein; experiment: ELISA, 1.111 nM mAb
Protocol: as §1

[12] = target: T1, human PD-L1^ECD-hFc protein; experiment: ELISA, 1.111 nM mAb
Protocol: as §1

[13] = target: T1, human PD-L1^ECD-hFc protein; experiment: ELISA receptor-ligand blocking assay: PD-L1^ECD-hFc coated on the plate, antibody titrated, blocked ligand biotinylated PD-1^ECD, HRP-streptavidin, inhibition rate (%)
Protocol: Purified PD-L1^ECD-hFc (Example 2) was diluted with PBS to a final concentration of 1.0 μg/mL, and 100 μL diluted PD-L1^ECD-hFc were added to each well of a 96-well plate that was then sealed with plastic film and incubated at 4° C. overnight. The plate was washed twice with wash buffer (PBS+0.01% (v/v) Tween 20) and incubated with blocking buffer (PBS+[…]) at room temperature for 2 hours. The blocking buffer was aspirated, and 50 μL purified anti-PD-L1 antibodies from Example 2 were added to each well of 96-well plate. […] The plate was washed three times with wash buffer (PBS+0.01% (v/v) Tween 20). 100 μL HRP-conjugated streptavidin (Sigma) were then added to each well and incubated at 37° C. for 2 hours. The plate was then washed three times with wash buffer, and 100 μL TMB substrate were added to each well. After 30 minutes of incubation at room temperature, the reaction was stopped by adding 100 μL stop solution (0.1N HCl).

T1 sequence (Q9NZQ7 19-239): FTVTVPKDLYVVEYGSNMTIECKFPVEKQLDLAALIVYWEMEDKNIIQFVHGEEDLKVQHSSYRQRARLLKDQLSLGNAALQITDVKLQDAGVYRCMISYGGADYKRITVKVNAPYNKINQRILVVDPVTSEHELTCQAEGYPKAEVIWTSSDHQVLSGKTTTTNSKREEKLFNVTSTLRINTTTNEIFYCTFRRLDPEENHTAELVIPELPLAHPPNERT
T3 sequence (G7PSE7 entry or part of it limits assumed): as the sequence (Q9NZQ7 19-239) above, with A33T, A34S, S62N, R68Q, Q82R, F173L, T185A, T192I, H215L counted along it
T2 sequence (Q9NZQ7 19-290 limits assumed): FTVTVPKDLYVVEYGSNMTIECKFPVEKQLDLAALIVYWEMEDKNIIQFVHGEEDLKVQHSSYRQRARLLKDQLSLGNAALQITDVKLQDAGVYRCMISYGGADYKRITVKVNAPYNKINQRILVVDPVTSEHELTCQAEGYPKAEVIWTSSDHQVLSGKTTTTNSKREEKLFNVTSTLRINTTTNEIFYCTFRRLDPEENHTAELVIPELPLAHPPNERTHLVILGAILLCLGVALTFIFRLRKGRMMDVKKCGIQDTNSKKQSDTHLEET

Row | Binder | OD450 nm [1] | IFN-γ (pg/mL), MLR, 0.001 µg/mL mAb [2] [pg/mL] | IFN-γ (pg/mL), MLR, 0.01 µg/mL mAb [2] [pg/mL] | IFN-γ (pg/mL), MLR, 0.1 µg/mL mAb [2] [pg/mL] | IFN-γ (pg/mL), MLR, 1 µg/mL mAb [2] [pg/mL] | Mean fluorescence intensity [3] | OD450 nm [4] | OD450 nm [5] | OD450 nm [6] | OD450 nm [7] | OD450 nm [8] | OD450 nm [9] | Mean fluorescence intensity [10] | OD450 nm [11] | OD450 nm [12] | IC50 (read off the curve) [13] [nM]
1 | chimeric anti-PD-L1 antibody 192D9E7 (antibody, V domains shown, Purified from hybridoma of Harbour H2L2 mice: human variable regions, rat constant regions) VH: EVQLVESGGGLVQPGGSLRLSCAASGFTFSSYWMSWVRQAPGKGLEWVADIKQDGSEKYYVDSVKGRFTISRDNAKNSLYLQMNSLRAEDTAVYYCTRDKPHWGGVMDAWGQGTSVTVSS VL: not shown | 0.4 | 4730 | 8100 | 9060 | 12400 | – | – | – | – | – | – | – | – | – | – | –
2 | chimeric anti-PD-L1 antibody 105C5D7 (antibody, V domains shown, Purified from hybridoma of Harbour H2L2 mice: human variable regions, rat constant regions) VH: EVQLVESGGGLVQPGGSLRLSCAASGFTFSSYWMSWVRQAPGKGLEWVANIKQDGNEKYYVDSVKGRFTISRDNAKNSLYLQMNSLRAEDTAVYYCARNIKWGDAFDIWGQGTMVTVSS VL: DIQMTQSPSSLSASVGDRVTITCRASQSISSYLNWYQQKPGKAPKLLIYAASSLQSGVPSRFSGSGSGTDFTLTISSLQPEDFAIYSCQQSYSIPLTFGGGTKVEIK | – | – | – | – | – | 201 | 0.34 | 0.34 | 1.19 | 1.19 | 1.53 | 1.53 | 203 | 1.32 | 1.32 | –
3 | chimeric anti-PD-L1 antibody 73D3G2 (antibody, V domains shown, Purified from hybridoma of Harbour H2L2 mice: human variable regions, rat constant regions) VH: EVQLVESGGGLVQPGGSLRLSCAASGFTFNTYWMNWVRQAPGRGLEWVANIKQDGGEKYYVDSVKGRFTISRDNAKNSLYLQMNSLRAEDTAMYYCARDGRSWYPDAFDIWGQGTVVTVSS VL: DIQMTQSPSTLSASVGDRVTITCRASQSISTWLAWYQQKLGKAPKLLIYEVSILESGVPSRFSGSGSGTEFTLTISSLQPDDFATYYCQQYHSFSSFGGGTRVEIK | – | – | – | – | – | 114 | 0.36 | 0.36 | 1.29 | 1.29 | 1.81 | 1.81 | 113 | 1.81 | 1.81 | ~0.5
4 | chimeric anti-PD-L1 antibody 78A11F6 (antibody, V domains shown, Purified from hybridoma of Harbour H2L2 mice: human variable regions, rat constant regions) VH: EVQLVESGGGLVQPGGSLRLSCAASGITFSSYWMSWVRQTPGKGLEWVANIKQDGSEKYYVKSVKGRFTISRDNAKNSLYLQMNSLRAEDTAVYYCVRDRAVPGTGAFDIWGQGTMVIVSS VL: DIQMTQSPSTLSASVGDRVTITCRASQSISNWLAWYQQKPGKAPKLLIYKASSLESGVPSRFSGSGSGTEFTLTISSLQPDDFATYYCQQYDSSLFTFGQGTKLEIK | – | – | – | – | – | 210 | 0.45 | 0.37 | 1.5 | 1.39 | 2.06 | 1.95 | 199 | 1.92 | 1.86 | –

The next lines start with the values.

Row | OD450 nm [1] | IFN-γ (pg/mL), MLR, 0.001 µg/mL mAb [2] [pg/mL] | IFN-γ (pg/mL), MLR, 0.01 µg/mL mAb [2] [pg/mL] | IFN-γ (pg/mL), MLR, 0.1 µg/mL mAb [2] [pg/mL] | IFN-γ (pg/mL), MLR, 1 µg/mL mAb [2] [pg/mL] | Mean fluorescence intensity [3] | OD450 nm [4] | OD450 nm [5] | OD450 nm [6] | OD450 nm [7] | OD450 nm [8] | OD450 nm [9] | Mean fluorescence intensity [10] | OD450 nm [11] | OD450 nm [12] | IC50 (read off the curve) [13] [nM] | Binder
5 | 0.38 | 6040 | 6280 | 8760 | 12600 | – | – | – | – | – | – | – | – | – | – | ~0.3 | chimeric anti-PD-L1 antibody 127D2F3 (antibody, V domains shown, Purified from hybridoma of Harbour H2L2 mice: human variable regions, rat constant regions) VH: EVQLVESGGGLVQPGGSLRLSCVASGFTFSSYWMSWVRQAPGKGLEWVANIKQDGSEKYYVDSVKGRLTISRDNAKNSLYLQMKSLRAEDTAVYYCARDPIYSSYFDYWGQGILVTVSS VL: DIQMTQSPSSLSASVGDRVTITCRASQSISNYLNWYQQKPGKAPKLLIYAASSLQSGVPSRFSGSGSGTDFTLTISSLQPEDFAAYYCQQSYGIPFTFGPGTKVDIK
6 | 0.28 | 3340 | 3390 | 7480 | 16400 | – | – | – | – | – | – | – | – | – | – | ~0.4 | chimeric anti-PD-L1 antibody 73G11B3 (antibody, V domains shown, Purified from hybridoma of Harbour H2L2 mice: human variable regions, rat constant regions) VH: EVQLVESGGGLVQPGGSLRLSCVVSGFTFSSYWMSWVRQTPGKGLEWVANIKQDGSEKYYVDSVKGRLTISRDNAKNSLYLQMNSLRAEDTAVYYCVRDRAVPGTGALDIWGQGTMVTVSS VL: not shown
